# In the supplement of paper PMC10567573:
# B1: HDAC6 (parent)
# chain: KMKTRELHRESSNFDSIYICPSTF
# Variants of: B1
# Test: protein stability index of a GFP-peptide fusion (GPS, HEK-293T) (PSI 1-6); higher = more stable
# Settings: c terminus: a fixed tail appended
# 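Further: lentivirally expressed fusions sorted by FACS into six bins by GFP to DsRed ratio, PSI derived from sequencing read proportions per bin multiplied by bin number.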
row,Variant,protein stability index
1,KMKTRERHRESSNFDSIYICPSTF [L7R],3.2
2,KMKTREVHRESSNFDSIYICPSTF [L7V],1.92
3,KMKTREFHRESSNFDSIYICPSTF [L7F],2.53
4,KMKTREEHRESSNFDSIYICPSTF [L7E],3.2
5,KMKTREYHRESSNFDSIYICPSTF [L7Y],2.41
6,KMKTREKHRESSNFDSIYICPSTF [L7K],3.11
7,KMKTREAHRESSNFDSIYICPSTF [L7A],3.33
8,KMKTRILHRESSNFDSIYICPSTF [E6I],1.83
9,KMKTRSLHRESSNFDSIYICPSTF [E6S],2.2
10,KMKTRWLHRESSNFDSIYICPSTF [E6W],1.76
11,KMKTRLLHRESSNFDSIYICPSTF [E6L],1.44
12,KMKTRKLHRESSNFDSIYICPSTF [E6K],2
13,KMKTRQLHRESSNFDSIYICPSTF [E6Q],2.66
14,KMKTRRLHRESSNFDSIYICPSTF [E6R],1.92
15,KMKTRHLHRESSNFDSIYICPSTF [E6H],1.96
16,KMKTRMLHRESSNFDSIYICPSTF [E6M],1.6
17,KMKTRPLHRESSNFDSIYICPSTF [E6P],1.66
18,KMKTRFLHRESSNFDSIYICPSTF [E6F],1.86
19,KMKTRCLHRESSNFDSIYICPSTF [E6C],1.31
20,KMKTRELHRESSTFDSIYICPSTF [N13T],2.35
21,KMKTRELHRESSDFDSIYICPSTF [N13D],2.61
22,KMKTRELHRESSQFDSIYICPSTF [N13Q],2.44
23,KMKTRELHRESSGFDSIYICPSTF [N13G],2.68
24,KMKTRELHRESSAFDSIYICPSTF [N13A],1.93

row,Variant,protein stability index
1,KMKTRELHRESSYFDSIYICPSTF [N13Y],1.64
2,KMKTRELHRESSMFDSIYICPSTF [N13M],2.58
3,KMKTRELHRESSEFDSIYICPSTF [N13E],2.23
4,KMKGRELHRESSNFDSIYICPSTF [T4G],2.83
5,KMKARELHRESSNFDSIYICPSTF [T4A],2.29
6,KMKCRELHRESSNFDSIYICPSTF [T4C],1.34
7,KMKSRELHRESSNFDSIYICPSTF [T4S],2.94
8,KMKHRELHRESSNFDSIYICPSTF [T4H],1.95
9,KMKDRELHRESSNFDSIYICPSTF [T4D],2.89
10,KMKKRELHRESSNFDSIYICPSTF [T4K],2.39
11,KMKTRELHRESSNFDSGYICPSTF [I17G],2.51
12,KMKTRELHRESSNFDSQYICPSTF [I17Q],2.48
13,KMKTRELHRESSNFDSDYICPSTF [I17D],3.75
14,KMKTRELHRESSNFDSLYICPSTF [I17L],2.13
15,KMKTRELHRESSNFDSEYICPSTF [I17E],3.19
16,KMKTRELHRESSNFDSKYICPSTF [I17K],3.31
17,KMKTRELHRESSNFDSSYICPSTF [I17S],2.45
18,KMKTRELHRESSNFDSTYICPSTF [I17T],3.25
19,KMKTRELHRESSNFDSNYICPSTF [I17N],2.9
20,KMKTRELHRESSNFDSAYICPSTF [I17A],2.96
21,KMETRELHRESSNFDSIYICPSTF [K3E],2.94
22,KMYTRELHRESSNFDSIYICPSTF [K3Y],2.06
23,KMGTRELHRESSNFDSIYICPSTF [K3G],2.08
24,KMCTRELHRESSNFDSIYICPSTF [K3C],2.43

row,Variant,protein stability index
1,KMTTRELHRESSNFDSIYICPSTF [K3T],2.2
2,KMSTRELHRESSNFDSIYICPSTF [K3S],2.81
3,KMWTRELHRESSNFDSIYICPSTF [K3W],2.14
4,KMATRELHRESSNFDSIYICPSTF [K3A],2.62
5,KMKTRELHRESSNFDSIYICPMTF [S22M],1.42
6,KMKTRELHRESSNFDSIYICPDTF [S22D],2.76
7,KMKTRELHRESSNFDSIYICPLTF [S22L],1.42
8,KMKTRELHRESSNFDSIYICPPTF [S22P],2.65
9,KMKTRELHRESSNFDSIYICPATF [S22A],2.14
10,KMKTRELHRESSNFDSIYICPNTF [S22N],2.13
11,KMKTRELHRESSNFLSIYICPSTF [D15L],4.27
12,KMKTRELHRESSNFGSIYICPSTF [D15G],1.69
13,KMKTRELHRESSNFRSIYICPSTF [D15R],1.89
14,KMKTRELHRESSNFPSIYICPSTF [D15P],1.68
15,KMKTRELHRESSNFQSIYICPSTF [D15Q],1.96
16,KMKTRELHRESSNFSSIYICPSTF [D15S],2.04
17,KMKTRELHRESSNFHSIYICPSTF [D15H],1.44
18,KHKTRELHRESSNFDSIYICPSTF [M2H],2.43
19,KIKTRELHRESSNFDSIYICPSTF [M2I],2.15
20,KCKTRELHRESSNFDSIYICPSTF [M2C],2.28
21,KLKTRELHRESSNFDSIYICPSTF [M2L],1.99
22,KDKTRELHRESSNFDSIYICPSTF [M2D],2.75
23,KMKTRELHRESSNVDSIYICPSTF [F14V],2.68
24,KMKTRELHRESSNIDSIYICPSTF [F14I],2.58

row,Variant,protein stability index
1,KMKTRELHRESSNNDSIYICPSTF [F14N],3.05
2,KMKTRELHRESSNDDSIYICPSTF [F14D],2.79
3,KMKTRELHRESSNQDSIYICPSTF [F14Q],3.71
4,KMKTRELHRESSNWDSIYICPSTF [F14W],2.01
5,KMKTRELHRESSNRDSIYICPSTF [F14R],1.7
6,KMKTRELHRESTNFDSIYICPSTF [S12T],2.17
7,KMKTRELHRESRNFDSIYICPSTF [S12R],1.95
8,KMKTRELHRESINFDSIYICPSTF [S12I],1.94
9,KMKTRELHRESLNFDSIYICPSTF [S12L],1.83
10,KMKTRELHRESVNFDSIYICPSTF [S12V],2.38
11,KMKTRELHRESNNFDSIYICPSTF [S12N],2.04
12,KMKTRELHRESSNFDSIYIPPSTF [C20P],2.69
13,KMKTRELHRESSNFDSIYIGPSTF [C20G],2.22
14,KMKTRELHRESSNFDSIYIQPSTF [C20Q],3.13
15,KMKTRELHRESSNFDSIYISPSTF [C20S],2.48
16,KMKTRELHRESSNFDSIYITPSTF [C20T],2.76
17,KMKTRELHRESSNFDSIYIEPSTF [C20E],3.34
18,KMKTRELHRESSNFDSIYIMPSTF [C20M],2.17
19,KMKTRELHRESSNFDSIYICQSTF [P21Q],1.94
20,KMKTRELHRESSNFDSIYICRSTF [P21R],1.78
21,KMKTRELHRESSNFDSIYICVSTF [P21V],2.33
22,KMKTRELHRESSNFDSIYICDSTF [P21D],2.91
